Test results published in patent publication US20220064294A1 (ARCUS BIOSCIENCES, published 2022).

T1: human TIGIT, full length, on cells (human, UniProt Q495A1 22-244)
T1 construct: also called hTIGIT; hTIGIT-CHO
T1 sequence: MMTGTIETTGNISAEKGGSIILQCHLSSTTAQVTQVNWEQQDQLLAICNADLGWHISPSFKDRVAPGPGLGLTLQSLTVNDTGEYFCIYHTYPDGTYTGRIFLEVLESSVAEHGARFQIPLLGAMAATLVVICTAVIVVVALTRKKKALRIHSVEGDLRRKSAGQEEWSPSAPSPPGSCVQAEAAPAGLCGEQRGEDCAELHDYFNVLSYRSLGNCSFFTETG

T2: hTIGIT-His (human)
T2 construct: also called His-tagged human TIGIT protein extracellular domain; soluble hTIGIT-His
T2 chain: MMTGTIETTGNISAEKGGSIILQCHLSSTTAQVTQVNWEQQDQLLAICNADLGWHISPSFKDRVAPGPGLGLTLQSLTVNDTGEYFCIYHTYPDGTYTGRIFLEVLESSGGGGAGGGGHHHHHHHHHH

T3: cTIGIT-His (cynomolgus monkey)
T3 construct: also called His-tagged cyno TIGIT protein extracellular domain; soluble cTIGIT-His
T3 chain: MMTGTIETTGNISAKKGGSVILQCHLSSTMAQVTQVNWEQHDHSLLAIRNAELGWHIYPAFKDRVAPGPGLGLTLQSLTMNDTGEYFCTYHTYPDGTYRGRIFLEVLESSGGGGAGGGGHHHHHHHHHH


Experiments:
[1] = biological target: T1, human TIGIT, full length, on cells; assay: flow cytometry on CHO-K1 cells expressing human TIGIT
Experimental: (§1) These clones were further expanded, and antibodies were purified using a Protein G column. These purified antibodies were tested for binding to human and cyno TIGIT expressed on cell surface by flow cytometry. Stable CHO-K1 cell lines expressing full length human TIGIT clone 2A7 (Swiss-Prot Q495A1; SEQ ID NO: 80) or full length cyno TIGIT clone C10 (Swiss-Prot A0A2K5UW92; SEQ ID NO: 84) were developed. For the flow assay, cells were collected and incubated in 100 μL of HBSS buffer in the presence (or absence) of various concentrations of antibodies for 1 hr at 4° C. After washing with HBSS, antibody binding on cells was detected with 2 μg/mL of Alexa488-labeled goat anti-mouse IgG antibody (ThermoFisher Scientific, Cat #A-11001) for 30 min at 4° C. Cells were then washed and resuspended in PBS and subjected to flow cytometry using an Attune NxT flow cytometer (ThermoFisher Scientific, Waltham, Mass.). The geometric mean of the fluorescence intensity was obtained for the whole single cell population. Antibodies capable of binding to both human and cyno TIGIT expressed on cell surface were further tested for their blocking activity against recombinant human CD155 binding to human TIGIT on the surface of CHO cells. CHO-hTIGIT cells (10⁵ cells) were incubated with 2.5 μg/mL hCD155-Fc protein in the presence of various concentrations of antibody at room temperature for 1 hr. […] Cells were then washed and subjected to flow cytometry analysis.

[2] = biological target: T4, cynomolgus monkey TIGIT, full length, on cells (cynomolgus monkey); assay: flow cytometry on CHO-K1 cells expressing cyno TIGIT
T4 construct: Whole entry of 312 amino acids; also called cyno TIGIT; cTIGIT
Experimental: as §1

[3] = biological target: T1, human TIGIT, full length, on cells; assay: flow cytometry, inhibition of hCD155-Fc binding to CHO-hTIGIT cells
Experimental: as §1

hTIGIT-His = biological target: T2, hTIGIT-His; assay: SPR, Biacore 8K, Fab-SASA supernatant captured on BSA chip, hTIGIT-His as analyte
Description: (§2) Oligonucleotides were designed and synthesized as Fab fragments with human IgG1/kappa constant domains for the two VH and two VL grafted human acceptors and inserted into a vector system for high throughput screening of expression levels and biophysical properties, without the need for protein purification (Zhang & Hirama, Patent Application Publication US 2012/0178110). All four combinations of VH1 (SEQ ID NO: 76) or VH2 (SEQ ID NO: 78) with VL1 (SEQ ID NO: 79) or VL2 (SEQ ID NO: 77) (FIGS. 1J-1M) were screened along with a chimera Fab mVH+mVL constructed from the mouse 24F8VH (SEQ ID NO: 5) & 24F8VL (SEQ ID NO: 6) domains and human IgG1/kappa Fab constant domains. Supernatants of the Fabs, secreted as a SASA (single-domain antibody against serum albumin) fusion proteins were analyzed by surface plasmon resonance (SPR) using a Biacore 8K instrument with Fab capture using an BSA coated chip and soluble His-tagged TIGIT as the analyte. The kinetic binding data for human and cyno TIGIT are shown in Table 9 for the five Fab fragments.

cTIGIT-His = biological target: T3, cTIGIT-His; assay: SPR, Biacore 8K, Fab-SASA supernatant captured on BSA chip, cTIGIT-His as analyte
Description: as §2

| EC50 [1] [nM] | EC50 [2] [nM] | IC50 [3] [nM] | Kd (hTIGIT-His) [nM] | koff (hTIGIT-His) [s⁻¹] | kon (hTIGIT-His) [M⁻¹ s⁻¹] | Kd (cTIGIT-His) [nM] | koff (cTIGIT-His) [s⁻¹] | kon (cTIGIT-His) [M⁻¹ s⁻¹] | Binder |
| --- | --- | --- | --- | --- | --- | --- | --- | --- | --- |
| 0.952 | 1.79 | 1.67 |  |  |  |  |  |  | 21F8 (antibody, V domains shown, Mouse monoclonal antibody purified from hybridoma on Protein G; also called mAb 21F8; mouse anti-TIGIT clone 21F8) VH: DVQLQESGPGLVKPSQSLSLTCTVTGYSITSDYAWNWIRQFPGNKLEWMGYISYSGSTSYNPSLKSRISITRDTSKNQFFLQLNSVTTEDTATYYCARFMITTFAMDYWGQGTAVTVSS VL: DIVMTQSHKFMSTSVGDRVSITCKASQHVSTAVAWYQQKPGQSPKLLIYSAPYRYTGVPDRFTGSGSGTDFTFTISSVQAEDLAVYYCQQHYNTLWTFGGGTKLEIK |
| 1.31 | 1.85 | 1.79 |  |  |  |  |  |  | 24F8 (antibody, V domains shown, Mouse monoclonal antibody purified from hybridoma on Protein G; also called mAb 24F8; mouse anti-TIGIT clone 24F8) VH: DVQLQESGPDLVKPSQSLSLTCTVTGYSITSGYSWHWIRQFPGNKLDWMGYVHYSGSTNYNPSLKSRISITRDTSKNQFFLQLNSVTTEDTATFYCARMDYGNYGGAMDYWGQGTSVTVSS VL: EIVMTQSHKFMSTSVGDRVSITCKASQDVRTAVAWYQQKPGQSPKLLIYSASYRYTGVPDRFTGSGSGTDFTFTISSVQAEDLAVYYCQQYYSTQWTFGGGTKLEIK |
| 0.704 | 1.63 | 1.46 |  |  |  |  |  |  | 5J24 (antibody, V domains shown, Mouse monoclonal antibody purified from hybridoma on Protein G; also called mAb 5J24; mouse anti-TIGIT clone 5J24) VH: QVQLQQSGAELVRPGTSVKMSCKAAGYTFTNHWIGWVKQRPGHGLEWIGDIYPGGGYTNYNEKFKGKATLTADTSSSTAYMYLSSLTSEDSAIYYCARSYGYDLYAMDYWGQGTSVTVSS VL: DIQMTQSPSSLSASLGERVSLTCRASQEISGYLSWLQQKPDGTIKRLIYAASTLGSGVPKRFSGSRSGSDYSLTISSLESEDFADYYCLQYDSYPFTFGAGTKLELK |
|  |  |  | 0.0361 | 0.000111 | 3.08e+06 | 1.26 | 0.0014 | 1.11e+06 | Hu24F8.1 Fab (Fab, V domains shown, Fab with human IgG1/kappa constant domains, secreted as a SASA fusion protein and tested as supernatant; also called VH1 + VL2) VH: QVQLQESGPGLVKPSETLSLTCAVYGYSITSGYSWHWIRQPPGKGLEWIGYVHYSGSTNYNPSLKSRVTISVDTSKNQFSLKLSSVTAADTAVYYCARMDYGNYGGAMDYWGQGTLVTVSS VL: EIVMTQSPATLSVSPGERATLSCKASQDVRTAVAWYQQKPGQAPRLLIYSASYRYTGIPARFSGSGSGTEFTLTISSLQSEDFAVYYCQQYYSTQWTFGGGTKVEIK |
|  |  |  | 0.242 | 0.000481 | 1.99e+06 | 6 | 0.00585 | 974000 | Hu24F8.3 Fab (Fab, V domains shown, Fab with human IgG1/kappa constant domains, secreted as a SASA fusion protein and tested as supernatant; also called VH2 + VL1) VH: QVQLQESGPGLVKPSGTLSLTCAVSGYSITSGYSWHWVRQPPGKGLEWIGYVHYSGSTNYNPSLKSRVTISVDKSKNQFSLKLSSVTAADTAVYYCARMDYGNYGGAMDYWGQGTLVTVSS VL: DIQMTQSPSSLSASVGDRVTITCKASQDVRTAVAWYQQKPGKAPKLLIYSASYRYTGVPSRFSGSGSGTDFTFTISSLQPEDIATYYCQQYYSTQWTFGGGTKLEIK |
|  |  |  | 0.28 | 0.000855 | 3.05e+06 | 9.81 | 0.0133 | 1.35e+06 | Hu24F8.4 Fab (Fab, V domains shown, Fab with human IgG1/kappa constant domains, secreted as a SASA fusion protein and tested as supernatant; also called VH1 + VL1) VH: QVQLQESGPGLVKPSETLSLTCAVYGYSITSGYSWHWIRQPPGKGLEWIGYVHYSGSTNYNPSLKSRVTISVDTSKNQFSLKLSSVTAADTAVYYCARMDYGNYGGAMDYWGQGTLVTVSS VL: DIQMTQSPSSLSASVGDRVTITCKASQDVRTAVAWYQQKPGKAPKLLIYSASYRYTGVPSRFSGSGSGTDFTFTISSLQPEDIATYYCQQYYSTQWTFGGGTKLEIK |
|  |  |  | 0.045 | 9.39e-05 | 2.08e+06 | 1.09 | 0.000808 | 742000 | Hu24F8.2 Fab (Fab, V domains shown, Fab with human IgG1/kappa constant domains, secreted as a SASA fusion protein and tested as supernatant; Not the same preparation as Fab24F8 (papain fragment); also called VH2 + VL2) VH: QVQLQESGPGLVKPSGTLSLTCAVSGYSITSGYSWHWVRQPPGKGLEWIGYVHYSGSTNYNPSLKSRVTISVDKSKNQFSLKLSSVTAADTAVYYCARMDYGNYGGAMDYWGQGTLVTVSS VL: EIVMTQSPATLSVSPGERATLSCKASQDVRTAVAWYQQKPGQAPRLLIYSASYRYTGIPARFSGSGSGTEFTLTISSLQSEDFAVYYCQQYYSTQWTFGGGTKVEIK |
